Among the data in the RNAGym collection of RNA variant scans (doi:10.7554/elife.80360) are self-cleavage values, retold here.

The labels stand for the following.
B1: HDV Ribozyme (parent)
chain: GGCCGGCAUGGUCCCAGCCUCCUCGCUGGCGCCGGCUGGGCAACAUUCCGAGGGGACCGUCCCCUCGGUAAUGGCGAAUGGGACCCA

The variants in the series derive from B1. Description: self-cleavage, relative activity (ratio to wild type); higher = more cleavage; co-transcriptional.
C14G C22A: the self-cleavage was determined as 0.

Consider C13A U79G, for which the self-cleavage worked out at 0.151.

C14A A45G: the self-cleavage amounted to 0.703.

Consider C14U C58A, for which the self-cleavage came out at 1.13.

Consider C14A C64U, for which the self-cleavage turned out to be 0.743.

On to C14U G38U, for which the self-cleavage worked out at 0.271.

With C14G C86U, the self-cleavage came out at 1.07.

Turning to C13U C58U, the self-cleavage was 0.403.

Consider C13A G39U, for which the self-cleavage was determined as 0.0615.

Take C13A U27C: the self-cleavage was determined as 0.594.

As for C13A U27G, the self-cleavage was 0.594.

In the case of C14U G28U, the self-cleavage was found to be 0.285.

C14U C21G: the self-cleavage turned out to be 0.125.

On to C13G G76C, for which the self-cleavage was 0.217.

Consider C13U U27A, for which the self-cleavage was 1.29.

With C14U C48U, the self-cleavage was found to be 1.02.

As to C13A C19U, the self-cleavage turned out to be 0.119.

For the variant C13A C19A, the self-cleavage was 0.0302.

On to C13A C19G, for which the self-cleavage was 0.102.

Turning to C13G A77U, the self-cleavage came out at 0.119.

Take C14A U46G: the self-cleavage came out at 0.525.

As for C14G C58A, the self-cleavage worked out at 0.639.

For the variant C14G C66G, the self-cleavage is 0.391.

As for C14A C24G, the self-cleavage was determined as 0.146.

Consider C14A C24A, for which the self-cleavage was determined as 0.383.

With C14A A16U, the self-cleavage is 0.923.

Turning to C13U A71C, the self-cleavage is 0.639.

For C14G G74A, the self-cleavage came to 0.199.

C14A C61G: the self-cleavage worked out at 0.997.

Turning to C14A G55A, the self-cleavage was found to be 0.814.

For C14G U27C, the self-cleavage was 0.727.

For the variant C14G U27G, the self-cleavage came out at 1.14.

As to C14G A42C, the self-cleavage is 0.0923.

In the case of C14G G38A, the self-cleavage is 0.0831.

With C13U C84U, the self-cleavage came out at 0.361.

Take C14U U79C: the self-cleavage came to 0.259.

As for C13U G76A, the self-cleavage is 0.743.

Turning to C13A G76C, the self-cleavage was determined as 0.386.

With C14G C64G, the self-cleavage stood at 0.485.

Take C14G A45U: the self-cleavage turned out to be 0.237.

On to C14G G50C, for which the self-cleavage came to 0.302.

Regarding C14G C21G, the self-cleavage is 0.0449.

As to C14U C44G, the self-cleavage was found to be 0.7.

Take C13A G80U: the self-cleavage is 0.0654.

Consider C14G C30G, for which the self-cleavage is 0.0692.

As for C14G C48U, the self-cleavage stood at 0.831.

In the case of C14G C48A, the self-cleavage stood at 0.723.

As for C13A G35C, the self-cleavage was determined as 0.0339.

On to C14G G73C, for which the self-cleavage stood at 0.0504.

In the case of C14G G73A, the self-cleavage was 0.222.

As for C14U G82A, the self-cleavage was determined as 0.323.

Turning to C13U A45U, the self-cleavage came to 0.198.

In the case of C13U U46G, the self-cleavage came to 0.356.

As for C14U U37C, the self-cleavage was found to be 1.32.

In the case of C13U U47A, the self-cleavage is 0.646.

In the case of C14U C30A, the self-cleavage was found to be 0.675.

On to C14U C30U, for which the self-cleavage was 0.489.

For the variant C13A C58U, the self-cleavage worked out at 0.415.

Turning to C14U C75A, the self-cleavage is 0.208.

As for C14U A87U, the self-cleavage was determined as 1.08.

For C14U A87C, the self-cleavage worked out at 1.12.

Turning to C13U G80A, the self-cleavage was determined as 0.31.

With C14U G55C, the self-cleavage worked out at 1.05.

C14G C32G: the self-cleavage was determined as 0.

On to C14G C32A, for which the self-cleavage is 0.0554.

Take C14U G74U: the self-cleavage amounted to 0.733.

As to C13G C66U, the self-cleavage was found to be 0.0692.

With C13G C66G, the self-cleavage came to 0.135.

Take C13G G68C: the self-cleavage was found to be 0.

Regarding C13G G68U, the self-cleavage was determined as 0.0978.

As for C14G U60A, the self-cleavage was determined as 0.831.

Regarding C13U C36G, the self-cleavage amounted to 0.0723.

In the case of C13U C36A, the self-cleavage was found to be 0.132.

Regarding C13U U65A, the self-cleavage amounted to 0.508.

On to C13A G17A, for which the self-cleavage amounted to 0.0639.

Consider C13A G17C, for which the self-cleavage worked out at 0.

As for C13A G54U, the self-cleavage came out at 0.188.

Take C14G G28U: the self-cleavage turned out to be 0.107.

As for C13A G74C, the self-cleavage was determined as 0.0346.

Consider C13A G74A, for which the self-cleavage stood at 0.101.

C13U C19A: the self-cleavage came to 0.138.

On to C13U C19U, for which the self-cleavage was determined as 0.0475.

Regarding C14A U65C, the self-cleavage came to 0.864.

C13G G52U: the self-cleavage stood at 0.

For the variant C14G G53U, the self-cleavage turned out to be 0.802.

As for C13A A77U, the self-cleavage worked out at 0.0739.

Regarding C14A G82C, the self-cleavage came out at 0.172.

For the variant C13U G74A, the self-cleavage amounted to 0.131.

On to C13U G74U, for which the self-cleavage turned out to be 0.0852.

Take C14A G74C: the self-cleavage was found to be 0.185.

Take C13G U37C: the self-cleavage was found to be 0.237.

On to U12G U23A, for which the self-cleavage came out at 0.875.

Take C14A U27A: the self-cleavage was found to be 0.739.

On to C14U C18U, for which the self-cleavage is 0.591.

On to C14U C61G, for which the self-cleavage came to 1.08.

As to C13G G17C, the self-cleavage came out at 0.138.

As for C14G U79C, the self-cleavage came out at 0.173.

As for C14G A43G, the self-cleavage was 0.0978.

C13A A56G: the self-cleavage came to 0.101.

With C13U C86U, the self-cleavage was found to be 1.1.

In the case of C14G G80U, the self-cleavage stood at 0.261.

Consider C14U C85U, for which the self-cleavage came to 0.831.

Take C14U C85G: the self-cleavage was 0.712.

In the case of C14U C15U, the self-cleavage amounted to 0.665.

In the case of C13A U69G, the self-cleavage was determined as 0.314.

In the case of C13A C30U, the self-cleavage came out at 0.181.

In the case of C13U C62G, the self-cleavage came out at 0.554.

C13G C15G: the self-cleavage was found to be 0.122.

On to C13A A87G, for which the self-cleavage was 0.187.

As to C14A G31C, the self-cleavage came to 0.0678.

With U12G U72G, the self-cleavage amounted to 0.128.

Take U12G U72C: the self-cleavage is 0.

With C13A C64A, the self-cleavage was determined as 0.264.

With C13G U72G, the self-cleavage stood at 0.0923.

Turning to C13A C49G, the self-cleavage is 0.0326.

C13A C49U: the self-cleavage is 0.119.

With C14G A56G, the self-cleavage was 0.646.

C14G A56U: the self-cleavage came to 0.969.

With C13U G53C, the self-cleavage worked out at 0.831.

In the case of C13G C24G, the self-cleavage turned out to be 0.

Take C14U G54U: the self-cleavage came to 1.23.

Take C14U G35A: the self-cleavage came to 0.631.

Turning to C14U C22G, the self-cleavage was 0.155.

As for C13A G53A, the self-cleavage amounted to 0.229.

As to C13A G53U, the self-cleavage was 0.138.

As for C13G C62U, the self-cleavage came to 0.0369.

As for C14G C44U, the self-cleavage is 0.208.

Turning to C14A C26U, the self-cleavage turned out to be 1.07.

Take C14A G80C: the self-cleavage was determined as 0.104.

In the case of C13G A87U, the self-cleavage was 0.0911.

In the case of C14U G68C, the self-cleavage is 0.733.

Take C13G A42U: the self-cleavage was determined as 0.0811.

As for C14G C61G, the self-cleavage is 0.782.

In the case of C13U G17C, the self-cleavage was determined as 0.217.

Consider C14A G67C, for which the self-cleavage is 0.554.

C13U G38C: the self-cleavage stood at 0.0554.

Regarding C14A C30U, the self-cleavage was determined as 0.143.

Regarding C14G G67A, the self-cleavage was determined as 0.453.

Turning to C14U G40C, the self-cleavage worked out at 0.391.

In the case of C13A A78U, the self-cleavage worked out at 0.0449.

For the variant C13U A78G, the self-cleavage was found to be 0.178.

As to C14A U20C, the self-cleavage stood at 0.111.

C13A G52C: the self-cleavage was 0.383.

C13A G52A: the self-cleavage was found to be 0.229.

Take C13U C64U: the self-cleavage is 0.554.

C14A A70C: the self-cleavage was found to be 0.467.

Regarding C14A U60G, the self-cleavage came to 0.684.

C14A U60C: the self-cleavage came to 0.485.

On to C13G C14G, for which the self-cleavage came to 0.166.

As to C14G A16C, the self-cleavage was 0.0875.

C14G A16U: the self-cleavage is 0.791.

Regarding C13A G82U, the self-cleavage was 0.904.

As for C13A G81U, the self-cleavage came out at 0.22.

As for C14A U23C, the self-cleavage worked out at 0.997.

With C14G U23A, the self-cleavage is 0.68.

With C13A G29U, the self-cleavage stood at 0.0782.

Turning to C14G A78U, the self-cleavage amounted to 0.185.

Turning to C13A C61U, the self-cleavage stood at 0.185.

Regarding C14A G54A, the self-cleavage was 0.751.

As for C13U G29A, the self-cleavage worked out at 0.104.

In the case of C13U G29C, the self-cleavage was determined as 0.0332.

For C13A G31U, the self-cleavage was determined as 0.0604.

C14U A77U: the self-cleavage was found to be 0.573.

As to C14G U20G, the self-cleavage was determined as 0.151.

As for C13G C85A, the self-cleavage was found to be 0.

C13G C85U: the self-cleavage was 0.

As for C14U A45G, the self-cleavage came to 0.988.
